Test results from patent publication US20140289906A1, “Compositions Having Dicamba Decarboxylase Activity and Methods of Use” (priority 2013, published 2014).

Experiment: 14C assay: 14CO2 capture from [14C]-carboxyl-labeled dicamba with IPTG-induced recombinant E. coli cells
Settings: for Dicamba Decarboxylase Activity: IPTG-induced recombinant E. coli cells, 14CO2 from [14C]-carboxyl-labeled dicamba; for decarboxylation activity of dicamba: among the 108 sequences tested, recombinant E. coli cell assay; for Enzymatic Detection level: dicamba decarboxylation activity

| Molecule | Dicamba Decarboxylase Activity | decarboxylation activity of dicamba | Enzymatic Detection level |
| --- | --- | --- | --- |
| 88 (protein, listed as Starkeya novella) MARKIALEEHFTTPELAGKYVARPTQSDALFADIERRLADFDELRLEMMDRAEIDLMVLSVTTPGVQGVRDTGEAIRLARGANDFLAREVQKRPSRYAGFAHLAMQDAEAAATELERAVRELGFRGALINGQTNGHYLDEDQYAPFWERVQELDVPVYLHPGNMADSPAMFAHRPELGGPIWAWTAETAAHALRLVFGGTFTRFPGAKVILGHMGETLPFLLWRLDSRREFDLGEKLAPDALPSAIIKRNIAVTTSGVCDPAPLVAALQALSDDNVMFSVDYPYEDPQLASKFIETAPIGEETRAKVCHGNAERLLGL | High | showed decarboxylation activity of dicamba | High |
| 81 (protein, listed as Verticillium dahliae) MAASTKPKVVDIHTHMYPPSYIDILTSRTAIPVVRTFPQAADPRLILLDAEQQALDAALQDPTAKPPGRPLTSHYASLDQKIHFMDTHSIDISVVSLANPWLDFIEPKEAAATARSVNDEFEAMCASQPGRLFFFAALPLTAPLPALLEAVRHVAELEHCRGVILGTSGLGSGLDDPELVPVLEAVAAAALTVFLHPHYGLPNDVWGPRASAEYGHVLPLALGFPMETTIAVARMYLAGVFDRVPALRMLLAHSGGTLPFLAGRIESCILHDGQLVAEGKVGAARRTIWDVLREQVYLDAVIYSEIGLKAAIAASGGADRLMFGTDHPFFPPLGTDEQAKKESRINAGGSRPMITGNAMINGHGGLCNHITQSDYQDVVL | High | showed decarboxylation activity of dicamba | High |
| 4 (protein, listed as Lactobacillus buchneri) MAKVITLEEHFSSQKLGQKMAEVLPKRPIGNVSPKMQDYMQRSLPPEAELEDVTGSRIQWMDQHQISMQILSYGNQNPQNSDPKFAVELTKLANDELAKAVAKAPDRFRAFASLPVSHPTDAAAELKRGVEELGFKGAMLVRPTSQAHPFFDDPFYLPIFEAAANLNVPVYLHPSFPDSQIIDYYYSNGPWDDKVSGILGTAGYGWHTDVGIQTVRLLLSGVFEKYPNLKLISGHWGEFASFALERMDQVMYPETNLSEPISKIYRDHVYVTPSGILTEPQLKFVKDEVGIEHLLYSIDYPYIKPENSGSFIESSPLTDEEKELFAHGNAEKLLQL | High | showed decarboxylation activity of dicamba | High |
| 21 (protein, listed as Agrobacterium tumefaciens) MAQGKVALEEHFAIPETLQDSAGFVPGDYWKELQHRLLDIQDTRLKLMDAHGIETMILSLNAPAVQAIPDRKKAIEIARRANDVLAEECARRPDRFLAFAALPLQDPDAATQELQRCVNDLGFVGALVNGFSQEGDGQTPLYYDLPQYRPFWGEVEKLDVPFYLHPRNPLPQDSRIYDGHPWLLGPTWAFAQETAVHALRLMASGLFDAHPRLNIILGHMGEGLPYMMWRIDHRNAWVKLPPRYPAKRRFVDYFNENFHITTSGNFRTQTLIDAILEIGADRILFSTDWPFENIDHASDWFNATTIAEADRVKIGRTNARRLFKLDGR | High | showed decarboxylation activity of dicamba | High |
| 26 (protein, listed as Variovorax paradoxus) MATHMAPMKNKIALEEHFAIDLTIADSQVYARPEVWQGLKSNLLDFEQQRLEKMDEWGTEFSILSLNSPAVQGIPDAKRAIEVAQRANDVLAEQVKRHPTRFGGFAALPMQDPEASARELERCVNQLGFHGFLVNGFSQVGDENIVVYYDDARFNDFWTAAAALKKPFYMHPRDPLLAREPIYDGAHWLTGPTWAFAMETAIHALRLMSSGMFDRHPALQMILGHFGEGIPFNIWRVDHILRKGRRGMPCDKEIGEYLRSNVHITTSGNFRTPTLLSTMLEVGSDRIMYSVDYPFEKHEDAARWFDTCEISENDRQKIGRDNARKLFGLK | High | showed decarboxylation activity of dicamba | High |
| 22 (protein, listed as Staphylococcus epidermidis) MAKSINFEEHYVVDDIQKETMKYMSSDPNGVPMQTMLKGLEQKSGFTNADDITKHDERIKFMDEHDVEMQVLSYGNGAPSNLEGERAIELCQQANDTLAKYVNEHPDRFVGFATLPINEPQAAVEEFKRCIKELGFKGALIMGHPKNGFLDQDQYDDLFATAEALNVPIYLHPSPVQSDVYQAYYKGNYSDVTAATFACFGYGWHVDVGIHAIHLVLSGVFDRHPNLNMIIGHWGEFVPFFLERMDDILFADHLEHPISYYFKNNFYITPSGMLTKPQFDLVKAEVGVDRILYSADYPYVEPDKLGTFLDELDLTEEEKEKISYKNGAKLLGLEK | High | showed decarboxylation activity of dicamba | High |
| 92 (protein, listed as Chitinophaga pinensis) MARIVTLEEHVSFPEMTALLPEEILKNRKQSGAALQMQEKLADITGERLTSMKAAGISMQVLSVENTDVYLLPDSLAPAFAAKYNDLLADKISSHSDAFAAFAMLPMTVPEAAADELERAVKTHGFCGAMIKGLINGVFLDAPKFAPVFACAEKLGVPLYIHPGIPPKEVIDAYYSNVGDTKGPNEAIACYGWGWHSETAIHILRLLAAGIFDKYPQLNIIIGHMGEMLPMMWERSNRVFQPGNNGKNQRTLIETFRKQLYITTSGIFTQPPLQIAIDTIGIDNILFSIDYPFSSNQMGIDFLTKAALPAEQLAKMAHGNADRILKF | Yes | showed decarboxylation activity of dicamba | High |
| 87 (protein, listed as Novosphingobium sp.) MASDIATAADLQTGGRQGYLRIATEEAFATRDQIDVYLRMVRDGTADRGMTSLWGFYAQSPSARATQIIERLLDLGEQRLADMDAAGIDKAVLALTSPGVQPLLDMEEARRIAGNANDRLAERCAAHPDRFIGMTAVAPQDPQWSAREILRGATQLGFKGVQINSHTQGRYLDEPFFDPIFRALGDVGQPLYIHPGTPPDSMIGPLLDAGLDGAIYGFGVETGMHLLRLITAGIFDRYPDLQIMVGHMGEALPYWLYRLDYMHQAGIRSQRYERMRPLKRTIAGYFRSNVLVTCSGMAWEPAIQFARQVMGEDRVMYAMDYPYQYEADEVRALDVMDLSPESKRKFFQTNAERWFDL | High | showed decarboxylation activity of dicamba | High |
| 89 (protein, listed as Erwinia billingiae) MATNRRDFLKNATAVMAGSTVFAGSSHFASAAAVEPAAVQPPRRIIALEEHFMLPEFVGYLHETQQNLRNGLVDKVVTPLSDFGKGRLEIMDKNGVDFAVLSLSGPGVQAEPDRVKAVRLARYANDKLATEMQKNPRRYGGFAHLAMQDPLAAANELERCVKQLHMQGGMINGETDGLYLDDRRYDVFWERVEALNVPIYIHPGNPPDYPHMFAGHPEMWGPVWSWAVETCSHALRLIFSGTFDRYPGARVILGHMGETLPIQLWRLDSRYQIANQTFAIKHPPSWYAKKNITITTSGVCNDAALRCALDSMGSENVMFSIDYPFESTEIAVNWLKTANITEQERNAVAWGNATSILRLGA | High | showed decarboxylation activity of dicamba | High |
| 19 (protein, listed as Talaromyces marneffei) MATPIITLEEHYISSAIRDASETDHYAVFPSQIISKLNTLSTERLQDLDNGHVSLQVISHGPGAQPPYLCQAANDELASAISANPTRFAGFALLPIAEPQLAVQELERCITQHKFVGALIDNHTNGQFYDDQKFWPVFEKAQELDAPIYVHPSYPDEESGVAAHYRGNYDDRIAAALGAYGWGWHSDTALSILRLFAAGLFDTYPNIKIIIGHMGEMLPFQLERVIGIASRFGRSRGLREVWTQNIWVTTSGMFALAPLACLLQTMPIERVLYSVDYPFSANEKGFAFLEEIKKSGLIKEGEDWERFLYKNAQELLKVNV | High | showed decarboxylation activity of dicamba | High |
| 79 (protein, Pyrenophora teres) MATTTTPSTLIATLESHLTPTLAFTSPTTSPTQPALHLIPPTTLTKLRNLGPGRVKDMHMLGHSRQIISHIPVAAPPQICSRFNDAIHAATMTNTAKFSVLAVLPTDGMEAAKELARCVSKYRFVGGVIGLNRGLRINGEGWEELWGLAERLRIPIMFREMWPLAFEIVDYQHHLPYSALGPILTQLHTSHTSSPLPLVRLYLSSVFDHYPSLRLVLAHPGSLPSLVPRIESLINSIPATDKPKRSFLDVWQHNIYLTTADAQDMSSLRALLEQIPVDRVLYASNYPFEERGNELMNELRESEFLTNIEWERVAWVNAETLFNLKEAGTKEARQLTTIPSSRS | High | showed decarboxylation activity of dicamba | High |
| 5 (protein, listed as Staphylococcus aureus) MAQNNMEANQMKSITFEEHYVIEDIQKETMNAISADPKGVPMKVMLEGLEKKTGFTNADELSHHDERIQFMNNQDVQIQVLSYGNGSPSNLVGQKAIELCQKANDQLANYIAQYPNRFVGFATLPINEPEAAAREFERCINDLGFKGALIMGRAQDGFLDQDKYDIIFKTAENLGVPIYLHPAPVNSDIYQSYYKGNYPEVTAATFACFGYGWHIDVGIHAIHLVLSGIFDRYPKLNMIIGHWGEFIPFFLERMDEALFAEHLNHPVSYYFKNNFYITPSGMLTKPQFDLVKKEAGIDRILYAADYPYIEPEKLGVFLDELGLTDEEKEKISYTNGAKLLGLSSNN | High | showed decarboxylation activity of dicamba | High |
| 16 (protein, listed as Staphylococcus aureus) MAQNNMEANQMKSITFEEHYVIEDIQKETMNAISADPKGVPMKVMLEGLEKKTGFTNADELSHHDERIQFMNNQDVQIQVLSYGNGSPSNLVGQKAIELCQKANDQLANYIAQYPNRFVGFATLPINEPETAAREFERCINDLGFKGALIMGRAQDGFLDQDKYDIIFKTAENLGVPIYLHPAPVNSDIYQSYYKGNYPEVTAATFACFGYGWHIDVGIHAIHLVLSGIFDRYPKLNMIIGHWGEFIPFFLERMDEALFAEHLNHPVSYYFKNNFYITPSGMLTKPQFDLVKKEAGIDRILYAADYPYIEPEKLGVFLDELGLTDEEKEKISYTNGAKLLGLSSNN | High | showed decarboxylation activity of dicamba | High |
